Experimental findings from US20080280828A1 are described below.

The target in experiment [1] is rat recombinant IgE (Serotech) (rat). Nature of the experiment: SPR (BIAcore 2000); ratio of RBA on IgE to RBA on guinea pig IgG.
Experiment [2] addresses human IgG Fc fragment (ICN) (human). Kind of experiment: SPR (BIAcore 2000); normalised to binding of fSGED6 to IgG, corrected for relative molar amount of ligand. (SPR reads the build-up and loss of mass on a sensor chip optically.)
For experiment [3], the target named is rabbit IgG F(ab')2 fragment (ICN) (rabbit). Described as above.
The target in experiment [4] is rat recombinant IgE (Serotech) (rat). The experiment is described as above.
In experiment [5] the target is guinea pig IgG (Sigma) (guinea pig). The description is as above.
Experiment [6] addresses human IgG Fc fragment (ICN) (human). Kind of experiment: SPR (BIAcore 2000); RBA further normalised to amount of protein against fSGED6.
The target of experiment [7] is rabbit IgG F(ab')2 fragment (ICN) (rabbit). The experiment is described as above.
In experiment [8] the target is rat recombinant IgE (Serotech) (rat). The description is as above.
Experiment [9] has as its target guinea pig IgG (Sigma) (guinea pig). The experiment is described as above.
Experiment [10] deals with human IgG Fc fragment (ICN) (human). Kind of experiment: SPR (BIAcore 2000), Ig immobilised on CM5 chip, tick sample as analyte.
Experiment [11] concerns the target rabbit IgG F(ab')2 fragment (ICN) (rabbit). Described as above.
The target in experiment [12] is rat recombinant IgE (Serotech) (rat). The description is as above.
The target in experiment [13] is guinea pig IgG (Sigma) (guinea pig). The description is as above.
Experiment [14] concerns the target human IgG Fc fragment (ICN) (human). Kind of experiment: SPR (BIAcore 2000); ratio of RBA on Fc to RBA on F(ab')2.

rat recombinant IgE (Serotech) (rat), sequence (P01855 whole entry, the tested form may be a part): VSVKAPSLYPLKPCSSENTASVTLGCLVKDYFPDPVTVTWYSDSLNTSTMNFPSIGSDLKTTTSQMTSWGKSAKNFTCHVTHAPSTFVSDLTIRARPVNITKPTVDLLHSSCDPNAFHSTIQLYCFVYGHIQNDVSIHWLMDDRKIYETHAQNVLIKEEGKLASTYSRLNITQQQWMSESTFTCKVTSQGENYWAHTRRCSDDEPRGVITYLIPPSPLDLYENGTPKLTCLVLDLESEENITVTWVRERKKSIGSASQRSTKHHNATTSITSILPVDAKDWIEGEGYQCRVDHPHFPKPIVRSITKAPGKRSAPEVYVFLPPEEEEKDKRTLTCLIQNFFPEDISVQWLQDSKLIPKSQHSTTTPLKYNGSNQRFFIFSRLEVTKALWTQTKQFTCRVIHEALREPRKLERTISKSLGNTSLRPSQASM

With “partially fed (day 6) female tick salivary gland extract”, the RBAIgE/RBAIgG in experiment [1] is 1.2. The Relative binding activity (RBA) in [2] is 1.1; in [3], 0; in experiment [4], 1.3; in experiment [5], 1. The RBA/mg protein came out at 1.1 in [6], 0 in [7], 1.3 in [8] and 1 in experiment [9]. Moreover, the Yield-binding (RU2) in [10] was determined as 748 RU; in [11], 13 RU; in experiment [12] it was 283 RU; in experiment [13], 263 RU.
In the case of “partially fed (day 7), dopamine-stimulated female tick saliva”, the RBAIgE/RBAIgG in experiment [1] came to 1.2. Besides, in [14], the RBAFc/RBAF(ab′)2 came out at 1.1. In addition, the Relative binding activity (RBA) in experiment [2] worked out at 8.2; in experiment [3] it was 7.5; in [4] it was 23.6; in [5] it was 19.4. Moreover, the RBA/mg protein turned out to be 328 in [6], 301 in [7], 943 in [8] and 775 in [9]. In addition, the Yield-binding (RU2) in experiment [10] turned out to be 5830 RU; in experiment [11] it was 2770 RU; in experiment [12], 4960 RU; in [13], 5100 RU.
For the substance “partially fed (day 6) male tick salivary gland extract”, the RBAIgE/RBAIgG in [1] is 1.2. Further, the RBAFc/RBAF(ab′)2 in [14] was determined as 1.1. Further, the Relative binding activity (RBA) in [2] is 2.4; in experiment [3], 2.2; in experiment [4] it was 3.6; in [5] it was 2.7. In addition, the RBA/mg protein in experiment [6] stood at 4.9; in [7], 4.5; in experiment [8] it was 7.3; in experiment [9], 5.5. Besides, the Yield-binding (RU2) in [10] was 1720 RU; in [11] it was 823 RU; in [12], 762 RU; in experiment [13], 719 RU.
